Results: patent publication US12269902B2, “Peptide compounds and peptide conjugates for the treatment of cancer through receptor-mediated chemotherapy” (TRANSFERT PLUS, S.E.C., priority 2015, dated 2025)
Residues, ends and D or L forms follow the SMILES beside them. *: point of attachment. X1 = CC(=O)O[C@@]12CO[C@@H]1C[C@H](O)[C@@]1(C)C(=O)[C@H](O)C3=C(C)[C@@H](OC(=O)[C@H](OC(=O)CCC(=O)*)[C@@H](NC(=O)OC(C)(C)C)c4ccccc4)C[C@@](O)([C@@H](OC(=O)c4ccccc4)[C@H]21)C3(C)C; Biotin = O=C1N[C@H]2[C@H](CS[C@H]2CCCCC(=O)*)N1

Legend:
[1] = Tissue distribution of radiolabeled compounds in mice
Description: CD-1 mice were injected with the radiolabeled conjugate at 5 mg/kg via iv bolus injections (21A) or […] of radiolabeled Docetaxel (21B). At the indicated times (1 h, 6 h, 24 h) mice were sacrificed and perfused with saline for 8 min. Tissues were then collected and radioactivity was measured. Results are expressed in terms of ng/g of tissue.
At the indicated times (1, 6 and 24 hours), whole body perfusion was performed for 8 min with saline at a flow rate of 8 ml/min after […] hours iv bolus injections.
After radiolabeling free iodine was remove. Mice were injected with Docetaxel-[^125I]-Katana peptide conjugate at 5 mg/kg. Plasma was collected at the indicated times. After 1, 2 and 24 hours some mice were perfused with saline, sacrificed and tissues were collected. Radioactivity in the plasma and tissues were measured in a radioactivity counter and results were calculated and expressed in terms of […] for the plasma or ng/g of tissues.

[2] = test system: SK-MEL-28 skin cancer cells; test: [3H]-Thymidine incorporation cell proliferation assay, SK-MEL-28; format: cell-based; details: SK-MEL-28 (Skin); Table 4; 2 or 3 days
Description: (§1) The effect of the Docetaxel-Katana peptide conjugate on various cell line proliferations was evaluated and compared to unconjugated Docetaxel (Table 4). IC50 values obtained for the Docetaxel-Katana peptide conjugate were very similar to those of Docetaxel in the cancer cells tested.
(§2) The phytochemical Curcumin, unconjugated and conjugated, was also tested on cancer cell proliferation (FIG. 28). Breast cancer cells (MDA-MB231) were incubated with increasing concentrations of KBC106 or curcumin. After 72 hrs, thymidine incorporation assay was performed to assess the anti-proliferative properties of both molecules. IC50 values were extracted from the anti-proliferative curves. […] Proliferation assay was also performed using different types of cancer cells (ovarian, breast, skin and colorectal cancer cells). IC50 values were calculated from the anti-proliferation curves. In all cases, the Curcumin conjugate (KBC106) had stronger anti-proliferative activity (9-100 fold) than unconjugated Curcumin, as shown in Table 6 below.
(§3) Cancer cells were cultured in 96-well white plates (Perkin Elmer). They were synchronized for 24 hours in serum-deprived medium. After incubation of cells with unconjugated drugs (docetaxel, cabazitaxel, doxorubicin) or with drug-Katana peptide conjugates for 2 or 3 days, all media was aspirated and cells were pulse-labeled for 4 hours at 37° C./[…]/5% CO2 with media containing 2.5 μCi/mL [methyl-3H] thymidine (Perkin Elmer). Cells were washed, fixed, and dried before addition of scintillation fluid (Microscint 0, Perkin Elmer). After 24 hours, cell-associated tritium was quantified by counting on a plate reader (TopCount, Perkin Elmer). Incorporated [3H] thymidine was plotted for each drug concentration.

[3] = test system: MDA-MB-231 breast cancer cells; test: cells; details: MDA-MB-231 (Breast); Table 4; 2 or 3 days
Description: Breast cancer cells (MDA-MB231) were incubated with increasing concentrations of KBC106 or curcumin. After 72 hrs, thymidine incorporation assay was performed to assess the anti-proliferative properties of both molecules. IC50 values were extracted from the anti-proliferative curves.
as §2, with “curves.” for “curves. In all cases, the Curcumin conjugate (KBC106) had stronger anti-proliferative activity (9-100 fold) than unconjugated Curcumin, as shown in Table 6 below.”
as §3

[4] = biological target: P-gp (MDR1) (Homo sapiens, UniProt P08183); test: Drug accumulation in MDCK-MDR1 cells with or without Cyclosporin A; details: 50 nM, 1 hr, 37° C., CsA 10 μM
Description: 6A. […] 6B. MDCK-MDR1 cells were incubated with 50 nM of either [^14C]-Doxorubicin or [^125I]-Katana peptide-Doxorubicin conjugate (KBB106) for 1 hr at 37° C. in the presence or absence of CsA (10 μM). After the incubation, cells were washed and radioactivity accumulated in cells was quantified. The results were expressed in terms of uptake fmol/mg of protein.
In order to determine whether the anticancer drug-Katana-peptide conjugates could also be P-gp substrates, MDCK-transfected cells with human MDR1 were used (MDCK-MDR1).
Cells were washed three times with PBS and preincubated for 30 min at 37° C. in culture medium without serum with or without the P-gp inhibitor Cyclosporin A (10 μM). Radiolabelled molecules (50 nM) were then added for 60 min. The cells were rapidly washed three times with ice-cold PBS and then lysed in 500 µL of 0.1 M NaOH. The amount of radiolabelled molecules retained in the cells was counted by β-scintillation counting (Packard model 1900 TR). An aliquot of cell lysate was used in parallel to determine cellular protein concentration.

[5] = test system: ES-2 ovarian cancer cells; test: [3H]-Thymidine incorporation cell proliferation assay, ES-2; format: cell-based; details: ES-2 (Ovary); Table 4; 2 or 3 days
Description: as §1, §2, §3

[6] = test system: A-375 skin cancer cells; test: [3H]-Thymidine incorporation cell proliferation assay, A-375; format: cell-based; details: A-375 (Skin); Table 4; 2 or 3 days
Description: as §1, §2, §3

[7] = test system: SKOV3 cancer cells; test: SKOV3 luciferase subcutaneous xenograft tumour model (Docetaxel, KBA-105); details: mice, treatments at 20 mg/kg/week as printed (equivalent dose of Docetaxel)
Description: Mice were implanted in the flank with SKOV3 cancer cells. Tumor growth was monitored by luminescence using the Near Infrared imaging system from Carestream.
Results are expressed in terms of luminescence intensity as a function of post-treatment days.
To further evaluate the in vivo efficacy of the Katana-drug conjugate, SKOV3 cancer cells expressing luciferase were implanted in the mouse flank. […] Tumour imaging was performed on different days by injecting the luciferase substrate luciferin and by using the Xtreme imaging system from Carestream.
Luminescence was then quantified and plotted as a function of days after implantation (FIG. 23).
SKOV3 cancer cells (2.5×10^6 cells) expressing luciferase were implanted in the right flank of mice. Tumour growth was monitored using near infrared (NiR) imaging system from Carestream by injecting the luciferase substrate luciferin. […] Luminescence associated with tumour growth of SKOV3/Luc cancer cells was quantified as a function of post-treatment days with the instrument software.

[8] = Plasma pharmacokinetics of radiolabeled compounds in mice; format: in vivo; details: mice iv, Docetaxel 2.2 mg/kg, KBA105 5 mg/kg
Description: FIG. 20 is a graph showing concentration of unconjugated and conjugated Docetaxel as a function of time. Mice were injected iv with radiolabeled [^3H]-Docetaxel or radiolabeled [^125I]-KBA105 at an equivalent dose of Docetaxel (Docetaxel=2.2 mg/kg; KBA105=5 mg/kg). Plasma samples were collected at different time points and radioactivity quantified. Results are expressed in terms of KBA105 or Docetaxel concentration in plasma as a function of time. Area under the curve for the time period (AUC1-24) was estimated for KBA105 and Docetaxel using GraphPad Prism software. Ratio between AUC1-24 for KBA105 and Docetaxel was calculated to be around 35.
To evaluate the impact of the drug conjugation to Katana Biopharma peptide on drug pharmacokinetics and tissue distribution, mice were injected with [^125I]-Docetaxel-Katana peptide conjugate. Plasma was collected at different times (FIG. 19A). Radioactivity associated with plasma was quantified and pharmacokinetic parameters were determined. […] In FIG. 20, plasma concentration of Docetaxel-Katana peptide conjugate was compared to that of unconjugated Docetaxel after iv bolus injection.
After radiolabeling free iodine was remove. […] Plasma was collected at the indicated times.

[9] = biological target: T1, sortilin (Homo sapiens, UniProt Q99523); test: biochemical; format: binding; details: read-out: ka
T1 construct: Increasing concentrations of a soluble form of sortilin was then injected over the sensor chip
T1 sequence (Q99523 78-755 limits assumed): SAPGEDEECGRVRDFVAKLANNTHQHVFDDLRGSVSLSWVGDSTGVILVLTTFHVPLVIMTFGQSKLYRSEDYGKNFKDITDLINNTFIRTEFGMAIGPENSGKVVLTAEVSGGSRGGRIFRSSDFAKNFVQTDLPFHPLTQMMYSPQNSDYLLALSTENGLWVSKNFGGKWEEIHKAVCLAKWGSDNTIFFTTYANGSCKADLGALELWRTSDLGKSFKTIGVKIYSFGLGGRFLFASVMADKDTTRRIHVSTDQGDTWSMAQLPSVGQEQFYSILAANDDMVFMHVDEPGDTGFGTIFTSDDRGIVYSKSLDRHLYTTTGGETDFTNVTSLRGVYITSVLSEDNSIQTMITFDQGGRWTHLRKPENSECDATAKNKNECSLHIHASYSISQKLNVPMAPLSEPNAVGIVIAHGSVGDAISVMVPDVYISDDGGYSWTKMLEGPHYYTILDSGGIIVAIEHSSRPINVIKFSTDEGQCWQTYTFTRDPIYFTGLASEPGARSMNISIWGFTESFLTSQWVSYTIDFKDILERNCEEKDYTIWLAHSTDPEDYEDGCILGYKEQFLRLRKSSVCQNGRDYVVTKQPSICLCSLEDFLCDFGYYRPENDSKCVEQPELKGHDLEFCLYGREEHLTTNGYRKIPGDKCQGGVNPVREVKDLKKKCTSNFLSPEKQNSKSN
Description: Biotinylated Katana peptide was immobilized on a streptavidin sensor chip. A. Soluble sortilin was then injected over the immobilized peptide. The surface plasmon resonance signal was then monitored over time.
Surface plasmon resonance (SPR) was first used to investigate whether these peptides could be recognized by sortilin. For this approach, biotin was added on the C-terminal end of the Katana-Biopharma peptide during peptide synthesis. The biotinylated-peptide (KBP-103) was then immobilized on a streptavidin sensor chip using recommended procedures from the manufacturer. Increasing concentrations of a soluble form of sortilin was then injected over the sensor chip. Interactions between immobilized KBP-103 and the receptor sortilin was then monitored in real time. A representative interaction curve is shown in FIG. 1, and from the sensorgram curves the affinity constant as well as Ka and Kd were determined and are indicated in Table 2. Affinity constants (KD, Ka and […]) were extracted from various injections using the BIA evaluation software.

Chain of P-gp (MDR1) (P08183 whole entry): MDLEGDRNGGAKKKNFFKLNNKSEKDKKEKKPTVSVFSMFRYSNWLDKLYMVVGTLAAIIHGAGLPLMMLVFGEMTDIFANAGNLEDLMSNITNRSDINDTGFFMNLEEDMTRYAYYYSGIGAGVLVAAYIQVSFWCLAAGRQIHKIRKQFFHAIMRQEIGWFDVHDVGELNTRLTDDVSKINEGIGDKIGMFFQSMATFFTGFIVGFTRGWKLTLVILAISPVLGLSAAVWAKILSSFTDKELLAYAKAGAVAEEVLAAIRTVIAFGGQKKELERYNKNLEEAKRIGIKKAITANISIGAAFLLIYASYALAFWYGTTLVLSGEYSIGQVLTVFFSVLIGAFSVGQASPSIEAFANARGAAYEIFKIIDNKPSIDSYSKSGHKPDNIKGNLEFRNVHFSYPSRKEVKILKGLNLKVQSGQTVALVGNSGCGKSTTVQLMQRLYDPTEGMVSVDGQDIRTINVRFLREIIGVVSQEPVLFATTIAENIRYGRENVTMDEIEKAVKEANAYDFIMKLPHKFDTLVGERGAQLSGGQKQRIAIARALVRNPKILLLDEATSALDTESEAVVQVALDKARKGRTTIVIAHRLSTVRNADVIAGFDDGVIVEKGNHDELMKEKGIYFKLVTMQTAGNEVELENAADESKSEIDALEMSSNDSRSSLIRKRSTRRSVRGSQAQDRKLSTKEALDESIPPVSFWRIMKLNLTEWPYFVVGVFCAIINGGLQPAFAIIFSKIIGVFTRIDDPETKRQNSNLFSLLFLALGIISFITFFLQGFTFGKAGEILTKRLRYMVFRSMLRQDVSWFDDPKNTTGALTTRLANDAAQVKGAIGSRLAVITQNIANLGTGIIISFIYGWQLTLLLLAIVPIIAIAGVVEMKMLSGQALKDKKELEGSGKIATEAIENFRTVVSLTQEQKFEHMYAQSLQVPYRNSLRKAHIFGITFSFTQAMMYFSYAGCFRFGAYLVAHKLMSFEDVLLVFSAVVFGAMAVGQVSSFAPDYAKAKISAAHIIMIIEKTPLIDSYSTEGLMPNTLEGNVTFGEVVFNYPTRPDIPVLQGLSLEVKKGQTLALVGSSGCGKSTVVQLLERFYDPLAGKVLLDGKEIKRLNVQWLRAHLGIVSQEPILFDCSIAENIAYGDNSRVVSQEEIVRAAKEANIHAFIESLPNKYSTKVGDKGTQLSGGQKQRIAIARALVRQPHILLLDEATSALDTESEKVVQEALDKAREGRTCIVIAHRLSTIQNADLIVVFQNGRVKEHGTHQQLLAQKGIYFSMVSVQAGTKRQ

Structure (SMILES): CSCC[C@H](NC(=O)[C@H](CC(N)=O)NC(=O)[C@H](CCCNC(=N)N)NC(=O)[C@@H](NC(=O)CNC(=O)[C@H](C)NC(=O)[C@H](CCCCNC(=O)CCC(=O)O[C@@H](C(=O)O[C@H]1C[C@@]2(O)[C@@H](OC(=O)c3ccccc3)[C@@H]3[C@]4(OC(C)=O)CO[C@@H]4C[C@H](O)[C@@]3(C)C(=O)[C@H](O)C(=C1C)C2(C)C)[C@@H](NC(=O)OC(C)(C)C)c1ccccc1)NC(=O)[C@H](C)NC(=O)[C@H](CCCNC(=N)N)NC(=O)[C@@H](NC(=O)CNC(C)=O)C(C)C)C(C)C)C(=O)N[C@@H](Cc1ccccc1)C(=O)N[C@@H](CCCCNC(=O)CCC(=O)O[C@@H](C(=O)O[C@H]1C[C@@]2(O)[C@@H](OC(=O)c3ccccc3)[C@@H]3[C@]4(OC(C)=O)CO[C@@H]4C[C@H](O)[C@@]3(C)C(=O)[C@H](O)C(=C1C)C2(C)C)[C@@H](NC(=O)OC(C)(C)C)c1ccccc1)C(=O)N[C@@H](CO)C(=O)N[C@@H](CCC(=O)O)C(=O)N[C@@H](CO)C(=O)N[C@@H](Cc1ccc(O)cc1)C(=O)O [KBA-105] (Ac-GVRAK(X1)AGVRNMFK(X1)SESY-OH; C-terminus assumed)
- Ratio (Estimated Docetaxel/Docetaxel) (AUC1-24) ([1]; Brain): 21.3
- Ratio KBA105/Docetaxel (AUC1-24) ([1]; Brain): 48.3
- Ratio (Estimated Docetaxel/Docetaxel) (AUC1-24) ([1]; Heart): 4.5
- Ratio KBA105/Docetaxel (AUC1-24) ([1]; Heart): 10.3
- Ratio (Estimated Docetaxel/Docetaxel) (AUC1-24) ([1]; Kidney): 5.3
- Ratio KBA105/Docetaxel (AUC1-24) ([1]; Kidney): 12.0
- Ratio (Estimated Docetaxel/Docetaxel) (AUC1-24) ([1]; Liver): 26.4
- Ratio KBA105/Docetaxel (AUC1-24) ([1]; Liver): 60
- Ratio (Estimated Docetaxel/Docetaxel) (AUC1-24) ([1]; Lung): 221
- Ratio KBA105/Docetaxel (AUC1-24) ([1]; Lung): 500
- Ratio (Estimated Docetaxel/Docetaxel) (AUC1-24) ([1]; Mammary): 1.5
- Ratio KBA105/Docetaxel (AUC1-24) ([1]; Mammary): 3.3
- Ratio (Estimated Docetaxel/Docetaxel) (AUC1-24) ([1]; Ovary): 0.7
- Ratio KBA105/Docetaxel (AUC1-24) ([1]; Ovary): 1.6
- Ratio (Estimated Docetaxel/Docetaxel) (AUC1-24) ([1]; Spleen): 25.0
- Ratio KBA105/Docetaxel (AUC1-24) ([1]; Spleen): 24.9
- IC50 [2]: 0.09 nM
- IC50 [3]: 1.03 nM
- effect of CsA on accumulation [4]: lack of CsA effect
- IC50 [5]: 0.7 nM
- IC50 [6]: 0.43 nM
- effect on body weight [7]: unaffected
- Ratio between AUC1-24 for KBA105 and Docetaxel [8]: around 35

Structure (SMILES): CC[C@H](C)[C@H](N)C(=O)N[C@@H](CCCCN)C(=O)N[C@@H](CC(C)C)C(=O)N[C@@H](CO)C(=O)NCC(=O)NCC(=O)N[C@H](C(=O)N[C@@H](CCC(N)=O)C(=O)N[C@@H](C)C(=O)N[C@@H](CCCCN)C(=O)N[C@@H](C)C(=O)NCC(=O)N[C@H](C(=O)N[C@H](C(=O)N[C@@H](CC(N)=O)C(=O)N[C@@H](CCSC)C(=O)N[C@@H](Cc1ccccc1)C(=O)N[C@@H](CCCCN)C(=O)N[C@@H](CO)C(=O)N[C@@H](CCC(=O)O)C(=O)N[C@@H](CO)C(=O)N[C@@H](Cc1ccc(O)cc1)C(=O)N[C@@H](CCCCNC(=O)CCCC[C@@H]1SC[C@@H]2NC(=O)N[C@@H]21)C(=O)O)[C@@H](C)CC)C(C)C)C(C)C [KBP-103] (H-IKLSGGVQAKAGVINMFKSESYK(Biotin)-OH)
- kon [9]: 683000 M⁻¹ s⁻¹
